Test results published in patent US20230322924A1 (Janssen / Centocor, published 2023).

Molecular target: T1, human CD33, full length, on cells (human, UniProt P20138 18-364)
T1 construct: SH2 and OCIAML3 carry SNP rs12459419 (hetero-/homozygous), which leads to a form without the V domain; also called Human CD33 (HEK293F transfectants); CD33 on AML cell lines KG1, SH2, OCIAML3
Assay: flow cytometry on CD33 expressing HEK293F cells
Method: OMNIRat antibodies identified via immunization, v-region cloned and subsequently expressed and purified were characterized further for binding to CD33 expressing cells and binding to recombinant antigens. The purified antibodies were assessed for binding to stably transfected HEK293F cells expressing human CD33 or cyno CD33 (generation described above) along with the parental HEK293F as negative control. Cells were harvested from tissue culture flasks using non-enzymatic dissociation buffer (Thermo Scientific). The flasks were rinsed twice with PBS and dissociation buffer was added to the flask, and the flask was incubated for 10 minutes at 37° C. until the cells became non-adherent. The cells were centrifuged at 300 g for 5 minutes and resuspended at 1.0×10⁶ cells/ml in staining buffer (Becton Dickinson; Franklin Lakes, NJ). 50,000 cells/well of each cell type was plated in 50 μl of staining buffer in round bottom plates (Becton Dickinson). […] 30 μl running buffer containing Sytox Green live/dead dye (ThermoFisher) was added to all wells with cells and the plates were read on an iQue IntelliCyt flow cytometer. […] Antibody binding was assessed by the mean fluorescence intensity in the AF647 channel.

T1 sequence (P20138 18-364 limits assumed): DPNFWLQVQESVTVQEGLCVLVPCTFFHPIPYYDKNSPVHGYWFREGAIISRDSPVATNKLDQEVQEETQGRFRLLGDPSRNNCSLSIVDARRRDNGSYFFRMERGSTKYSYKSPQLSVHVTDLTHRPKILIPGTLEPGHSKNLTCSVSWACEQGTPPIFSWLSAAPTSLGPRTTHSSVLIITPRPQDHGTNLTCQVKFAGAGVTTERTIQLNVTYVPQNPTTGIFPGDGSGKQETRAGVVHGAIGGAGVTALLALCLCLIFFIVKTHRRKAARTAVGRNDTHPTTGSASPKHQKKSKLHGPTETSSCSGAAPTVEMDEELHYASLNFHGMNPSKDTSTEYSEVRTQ

B1: C33B909 (antibody, V domains shown)
VH: EVQLVESGGGLVQPGRSLRLSCVASGFTFDDYAIHWVRQAPGKGLEWVSGLSWNGGNIGYADSVKGRFTISRDNAKNSLYLQMNSLKTEDTAFYYCTKDTPYGDYFDYWGQGTLVTVSS
VL: DIQMTQSPSSVWASVGDRVTITCRASQGISSWLAWYQQQPGKAPNLLIYRSSSLQSGVPSRFSGSGSGTDFTLTISSLQPEDFATYYCQQDNSFPYTFGQGTKLEIK
notes: OmniMouse clone; also called C33H249/C33L115
B1: no binding (tested: 60 nM highest tested).
